Results: patent US20220380475A1 (SORRISO PHARMACEUTICALS, published 2022)
Positions count from the first letter of the chain named. Names and notes keep the numbering of the source. Where two headings read alike, the source gives them in different places.

How the values were obtained:
[1] = molecular target: T1, membrane-bound human IL-6R on TF-1 cells (human, UniProt P08887 20-468); assay: cell-based or functional assay
T1 sequence: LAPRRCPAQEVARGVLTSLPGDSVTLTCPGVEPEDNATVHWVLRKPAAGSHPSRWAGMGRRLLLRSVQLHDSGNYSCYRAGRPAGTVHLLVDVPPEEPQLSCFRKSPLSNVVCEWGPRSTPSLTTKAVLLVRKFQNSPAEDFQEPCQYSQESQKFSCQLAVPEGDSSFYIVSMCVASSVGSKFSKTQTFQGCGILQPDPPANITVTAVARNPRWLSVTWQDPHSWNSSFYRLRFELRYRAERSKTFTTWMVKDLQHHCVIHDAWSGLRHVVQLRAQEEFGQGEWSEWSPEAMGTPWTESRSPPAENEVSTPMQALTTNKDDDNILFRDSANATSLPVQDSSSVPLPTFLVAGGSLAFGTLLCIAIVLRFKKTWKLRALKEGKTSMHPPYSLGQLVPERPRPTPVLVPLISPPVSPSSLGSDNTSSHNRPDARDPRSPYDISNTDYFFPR

[2] = molecular target: cynomolgus monkey soluble IL-6R (from cynomolgus monkey serum) (cynomolgus monkey); assay: ratio of gp130 ELISA IC50s on human and cynomolgus sIL-6R
[3] = molecular target: T2, recombinant soluble human IL-6R (human, UniProt P08887 20-365); assay: gp130 ELISA (competition), parallel human arm: 10 ng/mL human IL-6R, 50 ng/mL human IL-6
T2 sequence: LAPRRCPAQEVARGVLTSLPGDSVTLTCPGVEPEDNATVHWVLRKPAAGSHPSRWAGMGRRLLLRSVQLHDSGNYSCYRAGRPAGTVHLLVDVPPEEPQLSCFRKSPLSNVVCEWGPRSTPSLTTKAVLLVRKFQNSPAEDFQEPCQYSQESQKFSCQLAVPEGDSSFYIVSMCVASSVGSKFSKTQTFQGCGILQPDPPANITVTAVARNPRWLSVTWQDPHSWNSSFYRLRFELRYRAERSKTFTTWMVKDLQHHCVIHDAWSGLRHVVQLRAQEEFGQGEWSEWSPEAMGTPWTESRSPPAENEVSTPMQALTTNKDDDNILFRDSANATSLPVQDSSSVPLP
Method: (§1) The standard anti-cynomolgus monkey IL-6R gp130 ELISA assay detailed under ‘Potency, neutralisation and inhibition’ above was performed to assay the ICVDs in parallel for their ability to neutralise sIL6R in cynomolgous monkey serum and recombinant purified human sIL6R. Briefly, Maxisorp 96-well plates were coated overnight with 50 μl/well 1 μg/ml gp130 then blocked. ICVDs were serially diluted and mixed 1:1 with 200 ng/ml recombinant human IL-6, then 1:1 with either 20 ng/ml recombinant human sIL-6R or a 5-fold dilution of cynomolgus monkey serum and incubated for 1 hour to allow binding before adding to the gp130-coated plates. Bound cynomolgus monkey IL-6R was detected with 50 μl/well either 0.25 μg/ml (for human IL-6R) or 0.5 μg/ml (for monkey serum) BAF227 and then 50 μl/well 1/1000 Extravidin-HRP and the level of neutralisation by the ICVD of IL-6R binding to IL-6/gp130 was determined

[4] = molecular target: cynomolgus monkey soluble IL-6R (from cynomolgus monkey serum) (cynomolgus monkey); assay: anti-cynomolgus IL-6R gp130 ELISA (competition): 10x diluted cynomolgus serum, 50 ng/mL human IL-6, coated human gp130
[5] = molecular target: membrane-bound human IL-6R on TF-1 cells (human) (UniProt P08887); assay: cell-based or functional assay
[6] = molecular target: recombinant soluble human IL-6R (human) (UniProt P08887); assay: cell-based or functional assay
[7] = molecular target: membrane-bound human IL-6R on TF-1 cells (human) (UniProt P08887); assay: cell-based or functional assay; remark: listed apart in the source
[8] = molecular target: recombinant soluble human IL-6R (human) (UniProt P08887); assay: Biacore (SPR): binder fixed to the sensor, soluble human IL-6R flowed over
[9] = molecular target: recombinant soluble human IL-6R (human) (UniProt P08887); assay: standard gp130 ELISA (competition), Experiment 2; 10 ng/mL IL-6R, 50 ng/mL IL-6
[10] = molecular target: recombinant soluble human IL-6R (human) (UniProt P08887); assay: gp130 ELISA (competition): inhibition of human sIL-6R/IL-6 complex binding to coated gp130; 20 ng/mL IL6R, 100 ng/mL IL6
[11] = molecular target: T1, membrane-bound human IL-6R on TF-1 cells; assay: cell-based or functional assay; remark: listed apart in the source
[12] = molecular target: T1, membrane-bound human IL-6R on TF-1 cells; assay: cell-based or functional assay; remark: listed apart in the source
[13] = molecular target: T2, recombinant soluble human IL-6R; assay: standard gp130 ELISA (competition); column 'Potency'
[14] = molecular target: T3, cynomolgus monkey soluble IL-6R (from cynomolgus monkey serum) (cynomolgus monkey, UniProt P08887 20-365 (human entry)); assay: ratio of gp130 ELISA IC50s on human and cynomolgus sIL-6R
T3 construct: Natural soluble IL-6R present in diluted normal cynomolgus monkey serum; also called cyno IL6R; cynomolgous sIL-6R
T3 chain: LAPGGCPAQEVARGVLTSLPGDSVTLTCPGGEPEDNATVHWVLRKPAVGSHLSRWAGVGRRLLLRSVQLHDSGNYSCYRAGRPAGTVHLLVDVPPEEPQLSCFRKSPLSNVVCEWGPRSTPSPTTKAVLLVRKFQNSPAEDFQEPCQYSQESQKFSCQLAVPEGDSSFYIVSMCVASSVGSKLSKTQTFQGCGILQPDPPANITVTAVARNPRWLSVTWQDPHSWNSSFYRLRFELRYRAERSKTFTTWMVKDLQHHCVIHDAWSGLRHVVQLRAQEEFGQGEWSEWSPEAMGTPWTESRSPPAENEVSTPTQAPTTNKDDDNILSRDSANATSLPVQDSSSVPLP
Method: as §1

[15] = molecular target: T2, recombinant soluble human IL-6R; assay: gp130 ELISA (competition), second assay, 10 min pre-incubation; 20 ng/mL IL6R, 100 ng/mL IL6
Method: (§2) Briefly, Maxisorp 96-well plates were coated overnight with 50 μl/well 0.5 μg/ml gp130 then blocked. ICVDs were serially diluted and mixed 1:1 with 100 ng/ml recombinant human IL-6 then 1:1 with 40 ng/ml recombinant human sIL-6R, and incubated for 1 hour to allow binding before adding to the gp130-coated plates. Bound IL-6R was detected with 50 μl/well 0.250 μg/ml BAF227 and then 50 μl/well 1/1000 diluted Extravidin-HRP and the level of neutralisation by the ICVD of IL-6R binding to IL-6/gp130 was determined.
A separate assay was performed on 21E6 and 7F6 using the same protocol as above with the exception that the ICVD/IL-6R/IL-6 where only incubated with shaking for 10 min before being added to the assay plates.

[16] = molecular target: T3, cynomolgus monkey soluble IL-6R (from …); assay: anti-cynomolgus IL-6R gp130 ELISA (competition): 10x diluted cynomolgus serum, 50 ng/mL human IL-6, coated human gp130
Method: as §1

[17] = molecular target: T2, recombinant soluble human IL-6R; assay: gp130 ELISA (competition): inhibition of human sIL-6R/IL-6 complex binding to coated gp130; 20 ng/mL IL6R, 100 ng/mL IL6
Method: as §2
Dose response curves were obtained (dose response curves of particular ICVDs illustrated in FIG. 1). […] This was confirmed with curve-fitting software (Graphpad Prism), which fitted 4 parameter curves to the data and calculated the IC50s (Table 4.1, below).

[18] = molecular target: T2, recombinant soluble human IL-6R; assay: standard gp130 ELISA (competition); reference 5G9
[19] = molecular target: T2, recombinant soluble human IL-6R; assay: standard gp130 ELISA (competition); 10 ng/mL IL-6R, 50 ng/mL IL-6; column 'Potency'
Method: Mutant 5G9 sequences were produced and tested for their potency in the standard gp130 ELISA. The standard gp130 ELISA has a final assay concentration of 10 ng/mL IL-6R and 50 ng/mL IL-6.

[20] = molecular target: T1, membrane-bound human IL-6R on TF-1 cells; assay: cell-based or functional assay; remark: listed apart in the source
[21] = molecular target: T2, recombinant soluble human IL-6R; assay: cell-based or functional assay
[22] = molecular target: T2, recombinant soluble human IL-6R; assay: standard gp130 ELISA (competition), Experiment 1; 10 ng/mL IL-6R, 50 ng/mL IL-6
Method: (§3) The inhibitory potency and efficacy (maximal inhibition) of the E. coli-produced 5G9 derivatives were confirmed in vitro in the gp130 ELISA, TF-1 cell and M1 cell functional assays measuring responses mediated via human IL-6R. The gp130 assays follow the standard protocol with a final assay concentration of 10 ng/mL IL-6R and 50 ng/mL IL-6.

[23] = molecular target: T1, membrane-bound human IL-6R on TF-1 cells; assay: cell-based or functional assay; remark: listed apart in the source
[24] = molecular target: T2, recombinant soluble human IL-6R; assay: Biacore (SPR): ICVD fixed to the sensor, soluble human IL-6R flowed over
Source text: The binding kinetics of the trans-selective ID-123V (E. coli produced version of ID-142V) and the cis/trans potent ID-112V (E. coli produced version of ID-144V, but for ID-112V lacking N82Y relative to ID-144V) were compared against tocilizumab in a Biacore study. The ICVDs were fixed to the Biacore sensor plate and soluble human IL-6R was flowed over the plate to detect binding.

[25] = molecular target: T2, recombinant soluble human IL-6R; assay: standard gp130 ELISA (competition), Experiment 2; 10 ng/mL IL-6R, 50 ng/mL IL-6
Method: as §3

[26] = molecular target: T1, membrane-bound human IL-6R on TF-1 cells; assay: cell-based or functional assay; remark: listed apart in the source

tocilizumab Fab
IC50 of inhibition of IL-6-induced TF-1 cell proliferation [1]: 15.9 nM
Ratio of human IC50 to cynomolgus IC50 [2]: 0.6
IC50 [3]: 0.704 nM
IC50 [4]: 1.13 nM

B1: tocilizumab (antibody, part only; not given: constant regions, V domains shown, not shown: another chain or arm of the molecule)
VH: QVQLQESGPGLVRPSQTLSLTCTVSGYSITSDHAWSWVRQPPGRGLEWIGYISYSGITTYNPSLKSRVTMLRDTSKNQFSLRLSSVTAADTAVYYCARSLARTTAMDYWGQGSLVTVSS
VL: DIQMTQSPSSLSASVGDRVTITCRASQDISSYLNWYQQKPGKAPKLLIYYTSRLHSGVPSRFSGSGSGTDFTFTISSLQPEDIATYYCQQGNTLPYTFGQGTKVEIK
TF-1 cell assay EC50 (5 ng/ml IL-6) [5]: 0.69 nM
Potency in the TF-1 assay ([5]; scale: not given): 0.69
M1 cellular assay EC50 (20 ng/ml IL-6R, 100 ng/ml IL-6) [6]: 5.36 nM
TF-1 cell assay EC50 (5 ng/ml IL-6) [7]: 1.12 nM
Kd [8]: 0.39 nM
EC50 [9]: 1.83 nM
IC50 [10]: 0.97 nM

B2: 7F6 (VHH)
VHH: EVQLVESGGGLVQAGGSTRLTCLASGSISSINVIGWYRQAPGKQRELVAMIGRGEGANYGDFAKGRFTISRDNSKNTVYLQMNSLKPEDTAVYYCYADYEDRDSPFNGSWGQGTQVTVSS
notes: also called VIL-7F6; 'Wild type' 7F6; not shown: C-terminal Flag and 6xHis tags from vector pMEK222
IC50 of inhibition of IL-6-induced TF-1 cell proliferation [11]: 0.5 nM
IC50 in TF1 assay (separate assay, raised background) [12]: 3 nM
IC50 [13]: 0.15 nM
Ratio Cyno IC50/human IC50 (title: human IC50 divided by cynomolgous IC50) [14]: 1.2
IC50 [3]: 0.424 nM
IC50 [15]: 0.16 nM
IC50 [16]: 0.342 nM
IC50 [17]: 0.11 nM

B3: ID-58V (VHH)
VHH: EVQLVESGGGLVQAGGSTRLTCKASGSIFNINSINVMAWYRQAPGKQRELVAIIGKGGGTNYADVVKGRFTISRDAAKNTVNLQMNSLKPEDTAVYYCYADYEDRDSPFNASWGQGTQVTVSS
notes: Mutant of 5G9; also called 5G9 + F65V; not shown: C-terminal Flag- and His-tags of E. coli constructs
fold increase of IC50 against 5G9 [18]: ~3 fold
IC50 [19]: 0.36 nM

B4: ID-114V (VHH)
VHH: B3 VHH with F29S, V65F, V81L, N82Y, R105H
notes: E. coli-produced cis/trans potent 5G9 derivative; also called 5G9 + F29S, V81L, N82Y, R105H; not shown: C-terminal FLAG-6xHis
TF-1 cell assay EC50 (5 ng/ml IL-6) [20]: 0.29 nM
M1 cellular assay EC50 (20 ng/ml IL-6R, 100 ng/ml IL-6) [21]: 0.52 nM
EC50 [22]: 0.138 nM

B5: ID-123V (VHH)
VHH: B3 VHH with F29S, Q47G, V65F, N82Y, K89R, R105H, F109H
notes: E. coli-produced trans-selective 5G9 derivative; E. coli version of ID-142V (lacks E1D); also called 5G9 + F29S, Q47G, N82Y, K89R, R105H, F109H; not shown: C-terminal FLAG-6xHis
TF-1 cell assay EC50 (5 ng/ml IL-6) [23]: 4.5 nM
M1 cellular assay EC50 (20 ng/ml IL-6R, 100 ng/ml IL-6) [21]: 4.2 nM
Kd [24]: 1.1 nM
EC50 [25]: 0.498 nM

B6: ID-112V (VHH)
VHH: B3 VHH with F29S, Q47G, V65F, K89R, R105H
notes: E. coli-produced cis/trans potent 5G9 derivative; also called 5G9 + F29S, Q47G, K89R, R105H; not shown: C-terminal FLAG-6xHis
TF-1 cell assay EC50 (5 ng/ml IL-6) [26]: 0.18 nM
M1 cellular assay EC50 (20 ng/ml IL-6R, 100 ng/ml IL-6) [21]: 0.55 nM
Kd [24]: 0.04 nM
EC50 [22]: 0.15 nM
